Common to all, as to assay: holdup assay
What all share (set-up): key: below the threshold = too weak to quantify, mostly under pKd 3.1 to 4

In one test the target is O00233. The following applies: plain residues with an end cap or a label only (N-terminal biotin on a linker: ttds).
The target in another test is O00560. The note with it: plain residues with an end cap or a label only (N-terminal biotin on a linker: ttds).
A further test has as its target O15021. The following applies: plain residues with an end cap or a label only (N-terminal biotin on a linker: ttds).
The target in the next test is O43166. The note with it: plain residues with an end cap or a label only (N-terminal biotin on a linker: ttds).
The target of the next test is O60759. The note with it: plain residues with an end cap or a label only (N-terminal biotin on a linker: ttds).
For a further test, the target named is O75970. The following applies: plain residues with an end cap or a label only (N-terminal biotin on a linker: ttds).
Another test has as its target Q12923. The note with it: plain residues with an end cap or a label only (N-terminal biotin on a linker: ttds).
In the next test the target is Q13009. The following applies: plain residues with an end cap or a label only (N-terminal biotin on a linker: ttds).
The target in a further test is Q13368. The following applies: plain residues with an end cap or a label only (N-terminal biotin on a linker: ttds).
A further test addresses Q5TCQ9. The following applies: plain residues with an end cap or a label only (N-terminal biotin on a linker: ttds).
In the next test the target is Q6ZWJ1. The following applies: plain residues with an end cap or a label only (N-terminal biotin on a linker: ttds).
Another test deals with Q70Z35. The following applies: plain residues with an end cap or a label only (N-terminal biotin on a linker: ttds).
For the next test, the target named is Q8IUC4. The following applies: plain residues with an end cap or a label only (N-terminal biotin on a linker: ttds).
For the next test, the target named is Q92614. The following applies: plain residues with an end cap or a label only (N-terminal biotin on a linker: ttds).
The target of another test is Q96FS4. The note with it: plain residues with an end cap or a label only (N-terminal biotin on a linker: ttds).
Another test addresses Q96HC4. The note with it: plain residues with an end cap or a label only (N-terminal biotin on a linker: ttds).
Another test deals with Q96JB8. The note with it: plain residues with an end cap or a label only (N-terminal biotin on a linker: ttds).
The next test deals with Q96JY6. The note with it: plain residues with an end cap or a label only (N-terminal biotin on a linker: ttds).
A further test addresses Q96SB3. The note with it: plain residues with an end cap or a label only (N-terminal biotin on a linker: ttds).
The next test deals with Q9C0E4. The following applies: plain residues with an end cap or a label only (N-terminal biotin on a linker: ttds).
The target of another test is Q9H190. The following applies: plain residues with an end cap or a label only (N-terminal biotin on a linker: ttds).
The target in the next test is Q9NPB6. The note with it: plain residues with an end cap or a label only (N-terminal biotin on a linker: ttds).
The next test concerns the target Q9NR12. The note with it: plain residues with an end cap or a label only (N-terminal biotin on a linker: ttds).
The target in the next test is Q9P227. The note with it: plain residues with an end cap or a label only (N-terminal biotin on a linker: ttds).
A further test has as its target Q9Y3R0. The following applies: plain residues with an end cap or a label only (N-terminal biotin on a linker: ttds).
For a further test, the target named is LNX1_4, Q8TBB1.
Chain of LNX1_4, Q8TBB1 (Q8TBB1 631-726): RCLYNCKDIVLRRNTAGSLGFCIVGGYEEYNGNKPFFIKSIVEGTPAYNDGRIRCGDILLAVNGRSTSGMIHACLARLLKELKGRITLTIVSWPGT
The next test addresses T1, LNX2_1, Q8N448.
T1 sequence (Q8N448 228-328, limits assumed, looked up): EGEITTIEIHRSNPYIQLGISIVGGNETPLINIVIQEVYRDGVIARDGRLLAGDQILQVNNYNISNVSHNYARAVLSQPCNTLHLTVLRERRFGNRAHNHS

Setting [1] is: plain residues with an end cap or a label only (N-terminal biotin on a linker: ttds).
Where [2] appears, read: plain residues with an end cap or a label only (N-terminal biotin on a linker: none).

In the case of RLPKIKETTV [FRMPD4, Q14CM0], the pKd result in the test with O00233, with O00560, with O15021, in the test with O43166, with O60759 and in the test with O75970 was “below the threshold” throughout. Further, the pKd result with Q12923, in the test with Q13009, with Q13368, in the test with Q5TCQ9, in the test with Q6ZWJ1 and with Q70Z35 was “below the threshold” each time. Also, the negative logarithm of the Kd (pKd) entry in the test with Q8IUC4, with Q92614, with Q96FS4, with Q96HC4, with Q96JB8 and with Q96JY6 was “below the threshold” throughout. Further, the pKd entry in the test with Q96SB3, in the test with Q9C0E4, in the test with Q9H190, with Q9NPB6, with Q9NR12 and with Q9P227 was “below the threshold” each time. In addition, in the test with Q9Y3R0, the pKd entry is reported as “below the threshold”.

On to RPLPRKVSQL [DOCK4, Q8N1I0], for which the pKd entry with O00233, with O00560, with O15021, with O43166, in the test with O60759 and with O75970 was “below the threshold” each time. Besides, the pKd entry with Q12923, with Q13009, with Q13368, in the test with Q5TCQ9, with Q6ZWJ1 and with Q70Z35 was “below the threshold” throughout. Further, the pKd result in the test with Q8IUC4, in the test with Q92614, with Q96FS4, with Q96HC4, in the test with Q96JB8 and with Q96JY6 was “below the threshold” throughout. In addition, the pKd entry in the test with Q96SB3, with Q9C0E4, with Q9H190, with Q9NPB6, in the test with Q9NR12 and in the test with Q9P227 was “below the threshold” in each case. In addition, the pKd entry with Q9Y3R0 is “below the threshold”.

As for RLQRRRETQV [HPV18-E6, P06463], the pKd is 4.03 with LNX1_4, Q8TBB1 (setting [1]) and “below the threshold” in the test with LNX2_1, Q8N448 (setting [1]).

Regarding NLNSSRVPDLLV [SARS-CoV2-E, P0DTC4], the pKd entry in the test with LNX1_4, Q8TBB1 (setting [2]) was “below the threshold”; with LNX2_1, Q8N448 (setting [2]), “below the threshold”.

In the case of SKPTRRETEV [HPV35-E6, P27228], the pKd in the test with LNX1_4, Q8TBB1 (setting [1]) was 3.49; in the test with LNX2_1, Q8N448 (setting [1]) it was “below the threshold”.
